# T1: IFN-γ receptor (IFNGR1 and IFNGR2) (UniProt P15260 18-489; P38484 22-337, limits assumed)
# T1 sequence (looked up) 1: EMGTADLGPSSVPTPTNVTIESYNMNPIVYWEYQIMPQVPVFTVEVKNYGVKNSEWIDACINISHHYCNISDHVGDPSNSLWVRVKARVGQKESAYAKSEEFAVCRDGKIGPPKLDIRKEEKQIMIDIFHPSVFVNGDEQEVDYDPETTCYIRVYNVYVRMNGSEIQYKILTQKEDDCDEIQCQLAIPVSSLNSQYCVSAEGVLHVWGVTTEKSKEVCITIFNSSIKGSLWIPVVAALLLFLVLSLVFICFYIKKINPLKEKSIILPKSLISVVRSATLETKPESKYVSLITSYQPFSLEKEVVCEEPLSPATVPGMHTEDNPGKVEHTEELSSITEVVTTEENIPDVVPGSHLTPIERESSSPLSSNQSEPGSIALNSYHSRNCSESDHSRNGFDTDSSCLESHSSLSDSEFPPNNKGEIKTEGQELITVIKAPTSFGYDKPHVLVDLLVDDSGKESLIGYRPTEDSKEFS
# T1 sequence (looked up) 2: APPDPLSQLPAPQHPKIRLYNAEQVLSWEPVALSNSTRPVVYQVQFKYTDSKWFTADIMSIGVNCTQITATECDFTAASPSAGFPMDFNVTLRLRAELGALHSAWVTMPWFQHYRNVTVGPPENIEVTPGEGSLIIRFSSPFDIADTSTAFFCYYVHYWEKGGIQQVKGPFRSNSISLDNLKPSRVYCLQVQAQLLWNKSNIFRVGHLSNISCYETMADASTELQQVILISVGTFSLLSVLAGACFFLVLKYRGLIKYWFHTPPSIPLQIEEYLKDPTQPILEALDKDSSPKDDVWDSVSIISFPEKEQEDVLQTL
# B1: IFN-γ(A23V/A23V)/PD-L1(mut2)-Fc (Fc fusion)
# chain 1: FTVTVPKDLYVVEYGSNMTIECKFPVEKQLDLAALQVYWMMEDKNIIQFVHGEEDLKVQHSSYRQRARLLKDQLSLGNAALQITDVKLQDAGVYTCLIAYKGADYKRITVKVNAPYNKINQRILVVDPVTSEHELTCQAEGYPKAEVIWTSSDHQVLSGKTTTTNSKREEKLFNVTSTLRINTTTNEIFYCTFRRLDPEENHTAELVIPELPLAHPPNERGGGGSGGGDKTHTCPPCPAPEDEGGPSVFLFPPKPKDTLMISRTPEVTCVVVDVSHEDPEVKFNWYVDGVEVHNAKTKPREEQYNSTYRVVSVLTVLHQDWLNGKEYKCKVSNKALPAPIEKTISKAKGQPREPQVYVYPPSREEMTKNQVSLTCLVKGFYPSDIAVEWESNGQPENNYKTTPPVLDEDGSFALVSKLTVDKSRWQQGNVFSCSVMHEALHNHYTQKSLSLSPGK
# chain 2: FTVTVPKDLYVVEYGSNMTIECKFPVEKQLDLAALQVYWMMEDKNIIQFVHGEEDLKVQHSSYRQRARLLKDQLSLGNAALQITDVKLQDAGVYTCLIAYKGADYKRITVKVNAPYNKINQRILVVDPVTSEHELTCQAEGYPKAEVIWTSSDHQVLSGKTTTTNSKREEKLFNVTSTLRINTTTNEIFYCTFRRLDPEENHTAELVIPELPLAHPPNERGGGSGQDPYVKEAENLKKYFNAGHSDVVDNGTLFLGILKNWKEESDRKIMQSQIVSFYFKLFKNFKDDQSIQKSVETIKEDMNVKFFNSNKKKRDDFEKLTNYSVTDLNVQRKAIHELIQVMAELSPAAKTGKRKRSQMLFRGGGGSGGGGSGGGGSGGGGSQDPYVKEAENLKKYFNAGHSDVVDNGTLFLGILKNWKEESDRKIMQSQIVSFYFKLFKNFKDDQSIQKSVETIKEDMNVKFFNSNKKKRDDFEKLTNYSVTDLNVQRKAIHELIQVMAELSPAAKTGKRKRSQMLFRGGGGGSGGGDKTHTCPPCPAPEKKGGPSVFLFPPKPKDTLMISRTPEVTCVVVDVSHEDPEVKFNWYVDGVEVHNAKTKPREEQYNSTYRVVSVLTVLHQDWLNGKEYKCKVSNKALPAPIEKTISKAKGQPREPQVYVLPPSREEMTKNQVSLLCLVKGFYPSDIAVEWESNGQPENRYMTWPPVLDSDGSFFLYSKLTVDKSRWQQGNVFSCSVMHEALHNHYTQKSLSLSPGK
# B2: IL-12(E59A/F60A)/IFN-γ(A23V/A23V)/PD-L1(mut2)-Fc (Fc fusion)
# chain 1: FTVTVPKDLYVVEYGSNMTIECKFPVEKQLDLAALQVYWMMEDKNIIQFVHGEEDLKVQHSSYRQRARLLKDQLSLGNAALQITDVKLQDAGVYTCLIAYKGADYKRITVKVNAPYNKINQRILVVDPVTSEHELTCQAEGYPKAEVIWTSSDHQVLSGKTTTTNSKREEKLFNVTSTLRINTTTNEIFYCTFRRLDPEENHTAELVIPELPLAHPPNERGGGGSGGGIWELKKDVYVVELDWYPDAPGEMVVLTCDTPEEDGITWTLDQSSEVLGSGKTLTIQVKAAGDAGQYTCHKGGEVLSHSLLLLHKKEDGIWSTDILKDQKEPKNKTFLRCEAKNYSGRFTCWWLTTISTDLTFSVKSSRGSSDPQGVTCGAATLSAERVRGDNKEYEYSVECQEDSACPAAEESLPIEVMVDAVHKLKYENYTSSFFIRDIIKPDPPKNLQLKPLKNSRQVEVSWEYPDTWSTPHSYFSLTFCVQVQGKSKREKKDRVFTDKTSATVICRKNASISVRAQDRYYSSSWSEWASVPCSGGGGSGGGSGGGGSRNLPVATPDPGMFPCLHHSQNLLRAVSNMLQKARQTLEFYPCTSEEIDHEDITKDKTSTVEACLPLELTKNESCLNSRETSFITNGSCLASRKTSFMMALCLSSIYEDLKMYQVEFKTMNAKLLMDPKRQIFLDQNMLAVIDELMQALNFNSETVPQKSSLEEPDFYKTKIKLCILLHAFRIRAVTIDRVMSYLNASGGGGSGGGDKTHTCPPCPAPEDEGGPSVFLFPPKPKDTLMISRTPEVTCVVVDVSHEDPEVKFNWYVDGVEVHNAKTKPREEQYNSTYRVVSVLTVLHQDWLNGKEYKCKVSNKALPAPIEKTISKAKGQPREPQVYVYPPSREEMTKNQVSLTCLVKGFYPSDIAVEWESNGQPENNYKTTPPVLDEDGSFALVSKLTVDKSRWQQGNVFSCSVMHEALHNHYTQKSLSLSPGK
# chain 2: FTVTVPKDLYVVEYGSNMTIECKFPVEKQLDLAALQVYWMMEDKNIIQFVHGEEDLKVQHSSYRQRARLLKDQLSLGNAALQITDVKLQDAGVYTCLIAYKGADYKRITVKVNAPYNKINQRILVVDPVTSEHELTCQAEGYPKAEVIWTSSDHQVLSGKTTTTNSKREEKLFNVTSTLRINTTTNEIFYCTFRRLDPEENHTAELVIPELPLAHPPNERGGGSGQDPYVKEAENLKKYFNAGHSDVVDNGTLFLGILKNWKEESDRKIMQSQIVSFYFKLFKNFKDDQSIQKSVETIKEDMNVKFFNSNKKKRDDFEKLTNYSVTDLNVQRKAIHELIQVMAELSPAAKTGKRKRSQMLFRGGGGSGGGGSGGGGSGGGGSQDPYVKEAENLKKYFNAGHSDVVDNGTLFLGILKNWKEESDRKIMQSQIVSFYFKLFKNFKDDQSIQKSVETIKEDMNVKFFNSNKKKRDDFEKLTNYSVTDLNVQRKAIHELIQVMAELSPAAKTGKRKRSQMLFRGGGGGSGGGDKTHTCPPCPAPEKKGGPSVFLFPPKPKDTLMISRTPEVTCVVVDVSHEDPEVKFNWYVDGVEVHNAKTKPREEQYNSTYRVVSVLTVLHQDWLNGKEYKCKVSNKALPAPIEKTISKAKGQPREPQVYVLPPSREEMTKNQVSLLCLVKGFYPSDIAVEWESNGQPENRYMTWPPVLDSDGSFFLYSKLTVDKSRWQQGNVFSCSVMHEALHNHYTQKSLSLSPGK
# B3: IL-12(E59A/F60A)/IFN-γ(A23V/A23V)/PD-L1(mut7)-Fc (Fc fusion)
# chain 1: FTVTVPKDLYVVEYGSNMTIECKFPVEKQLDLAALQVYWMMEDKNIIQFVHGEEDLKVQHSSYRQRARLLKDQLSLGNAALQITDVKLQDAGVYTCLIAYGGADYKRITVKVNAPYNKINQRILVVDPVTSEHELTCQAEGYPKAEVIWTSSDHQVLSGKTTTTNSKREEKLFNVTSTLRINTTTNEIFYCTFRRLDPEENHTAELVIPELPLAHPPNERGGGGSGGGIWELKKDVYVVELDWYPDAPGEMVVLTCDTPEEDGITWTLDQSSEVLGSGKTLTIQVKAAGDAGQYTCHKGGEVLSHSLLLLHKKEDGIWSTDILKDQKEPKNKTFLRCEAKNYSGRFTCWWLTTISTDLTFSVKSSRGSSDPQGVTCGAATLSAERVRGDNKEYEYSVECQEDSACPAAEESLPIEVMVDAVHKLKYENYTSSFFIRDIIKPDPPKNLQLKPLKNSRQVEVSWEYPDTWSTPHSYFSLTFCVQVQGKSKREKKDRVFTDKTSATVICRKNASISVRAQDRYYSSSWSEWASVPCSGGGGSGGGSGGGGSRNLPVATPDPGMFPCLHHSQNLLRAVSNMLQKARQTLEFYPCTSEEIDHEDITKDKTSTVEACLPLELTKNESCLNSRETSFITNGSCLASRKTSFMMALCLSSIYEDLKMYQVEFKTMNAKLLMDPKRQIFLDQNMLAVIDELMQALNFNSETVPQKSSLEEPDFYKTKIKLCILLHAFRIRAVTIDRVMSYLNASGGGGSGGGDKTHTCPPCPAPEDEGGPSVFLFPPKPKDTLMISRTPEVTCVVVDVSHEDPEVKFNWYVDGVEVHNAKTKPREEQYNSTYRVVSVLTVLHQDWLNGKEYKCKVSNKALPAPIEKTISKAKGQPREPQVYVYPPSREEMTKNQVSLTCLVKGFYPSDIAVEWESNGQPENNYKTTPPVLDEDGSFALVSKLTVDKSRWQQGNVFSCSVMHEALHNHYTQKSLSLSPGK
# chain 2: FTVTVPKDLYVVEYGSNMTIECKFPVEKQLDLAALQVYWMMEDKNIIQFVHGEEDLKVQHSSYRQRARLLKDQLSLGNAALQITDVKLQDAGVYTCLIAYGGADYKRITVKVNAPYNKINQRILVVDPVTSEHELTCQAEGYPKAEVIWTSSDHQVLSGKTTTTNSKREEKLFNVTSTLRINTTTNEIFYCTFRRLDPEENHTAELVIPELPLAHPPNERGGGSGQDPYVKEAENLKKYFNAGHSDVVDNGTLFLGILKNWKEESDRKIMQSQIVSFYFKLFKNFKDDQSIQKSVETIKEDMNVKFFNSNKKKRDDFEKLTNYSVTDLNVQRKAIHELIQVMAELSPAAKTGKRKRSQMLFRGGGGSGGGGSGGGGSGGGGSQDPYVKEAENLKKYFNAGHSDVVDNGTLFLGILKNWKEESDRKIMQSQIVSFYFKLFKNFKDDQSIQKSVETIKEDMNVKFFNSNKKKRDDFEKLTNYSVTDLNVQRKAIHELIQVMAELSPAAKTGKRKRSQMLFRGGGGGSGGGDKTHTCPPCPAPEKKGGPSVFLFPPKPKDTLMISRTPEVTCVVVDVSHEDPEVKFNWYVDGVEVHNAKTKPREEQYNSTYRVVSVLTVLHQDWLNGKEYKCKVSNKALPAPIEKTISKAKGQPREPQVYVLPPSREEMTKNQVSLLCLVKGFYPSDIAVEWESNGQPENRYMTWPPVLDSDGSFFLYSKLTVDKSRWQQGNVFSCSVMHEALHNHYTQKSLSLSPGK
# Tests used:
# Test in all cases: cell-based or functional assay
# [1] = target: human PD-1 on cells (HEK-PD-1 reporter cells; activated PBMC) (human, UniProt Q15116 25-288)
# [2] = target: human IL-12 receptor complex (IL-12Rβ1 and IL-12Rβ2) (human, UniProt P42701 24-662; Q99665 24-862)
# [3] = target: T1, IFN-γ receptor (IFNGR1 and IFNGR2)
# Chain of human IL-12 receptor complex (IL-12Rβ1 and IL-12Rβ2) (Q99665 24-862, chain 2 of 2, other chains not shown): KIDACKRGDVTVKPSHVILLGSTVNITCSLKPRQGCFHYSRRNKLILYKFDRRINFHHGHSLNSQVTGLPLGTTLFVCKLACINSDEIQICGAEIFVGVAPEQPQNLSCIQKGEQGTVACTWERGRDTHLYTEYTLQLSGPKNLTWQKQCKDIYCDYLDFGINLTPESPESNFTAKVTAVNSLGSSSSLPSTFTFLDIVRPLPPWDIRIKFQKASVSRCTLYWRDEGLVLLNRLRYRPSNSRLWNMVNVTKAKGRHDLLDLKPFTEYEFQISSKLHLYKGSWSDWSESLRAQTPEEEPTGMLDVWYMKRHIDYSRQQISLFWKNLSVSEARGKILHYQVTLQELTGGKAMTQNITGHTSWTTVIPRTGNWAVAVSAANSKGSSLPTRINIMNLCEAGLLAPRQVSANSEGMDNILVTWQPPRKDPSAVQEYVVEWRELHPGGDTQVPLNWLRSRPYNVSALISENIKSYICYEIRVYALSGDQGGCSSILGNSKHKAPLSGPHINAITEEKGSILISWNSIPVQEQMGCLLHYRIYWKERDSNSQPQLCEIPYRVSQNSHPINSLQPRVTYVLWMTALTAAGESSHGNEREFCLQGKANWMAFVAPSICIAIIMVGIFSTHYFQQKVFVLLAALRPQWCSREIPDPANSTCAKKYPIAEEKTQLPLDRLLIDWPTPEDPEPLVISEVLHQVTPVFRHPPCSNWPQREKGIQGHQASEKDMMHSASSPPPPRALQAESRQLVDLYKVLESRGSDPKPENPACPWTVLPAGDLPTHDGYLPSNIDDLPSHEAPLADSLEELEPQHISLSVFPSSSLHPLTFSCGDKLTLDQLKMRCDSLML
# Chain of human PD-1 on cells (HEK-PD-1 reporter cells; activated PBMC) (Q15116 25-288): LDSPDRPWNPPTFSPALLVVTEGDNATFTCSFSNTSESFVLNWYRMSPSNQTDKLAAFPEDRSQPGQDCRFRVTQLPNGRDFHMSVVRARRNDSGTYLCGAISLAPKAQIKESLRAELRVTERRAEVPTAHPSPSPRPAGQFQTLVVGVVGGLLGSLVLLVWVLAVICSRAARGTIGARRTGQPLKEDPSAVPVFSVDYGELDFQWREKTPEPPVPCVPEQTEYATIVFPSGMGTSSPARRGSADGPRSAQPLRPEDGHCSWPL
binder,measurement,setting,value
B1,"IFN-γ signal transduction, HEK-IFN-γ-PD-1",[1],44%
same,"IL-12 signal transduction, HEK-IL-12-PD-1",[1],< 0.2%
same,"IL-12 signal transduction, HEK-IL-12",[2],< 0.2%
same,"IFN-γ signal transduction, HEK-IFN-γ",[3],< 0.1%
B2,"IFN-γ signal transduction, HEK-IFN-γ-PD-1",[1],39%
same,"IL-12 signal transduction, HEK-IL-12-PD-1",[1],32%
same,"IL-12 signal transduction, HEK-IL-12",[2],< 0.2%
same,"IFN-γ signal transduction, HEK-IFN-γ",[3],< 0.1%
B3,"IFN-γ signal transduction, HEK-IFN-γ-PD-1",[1],45%
same,"IL-12 signal transduction, HEK-IL-12-PD-1",[1],43%
same,"IL-12 signal transduction, HEK-IL-12",[2],< 0.2%
same,"IFN-γ signal transduction, HEK-IFN-γ",[3],< 0.1%

# Reference: patent US20240392004A1 (IMMUNOWAKE, published 2024)
